Drawing on patent US20260250398A1, this text covers TOPFLASH % Wnt Maxima, TOPFLASH EC50 and TOPFLASH Maximal Signal (% Wnt3a maxima) (% Wnt3a maxima) for 1 molecule.

This assay concerns the target FZD1/2/4/5/7/8. In words: cell-based or functional assay.

B1: ANT-1 (LRP Diabody-Fc-FZD Fab; paratopes 2540, 2542; 5016) (bispecific antibody)
heavy 1: MNLLLILTFVAAAVAEFEVQLVESGGGLVQPGGSLRLSCAASGFNISSYYIHWVRQAPGKGLEWVASIYSSYGYTSYADSVKGRFTISADTSKNTAYLQMNSLRAEDTAVYYCARTVRGSKKPYFSGWAMDYWGQGTLVTVSSGGGGSDIQMTQSPSSLSASVGDRVTITCRASQSVSSAVAWYQQKPGKAPKLLIYSASSLYSGVPSRFSGSRSGTDFTLTISSLQPEDFATYYCQQYYFLITFGQGTKVEIKLEDKTHTKVEPKSSDKTHNCPPCPAPELLGGPSVFLFPPKPKDTLMISRTPEVTCVVVDVSHEDPEVKFNWYVDGVEVHNAKTKPREEQYNSTYRVVSVLTVLHQDWLNGKEYKCKVSNKALPAPIEKTISKAKGQPREPQVYTLPPIRELMTSNQVSLSCAVKGFYPSDIAVEWESNGQPENNYKTTPPVLDSDGSFFLVSKLTVDKSRWQQGNVFSCSVMHEALHNHYTQKSLSLSPGKSGSETPGTSESATPESGGGEVQLVESGGGLVQPGGSLRLSCAASGFNIHSSSIHWVRQAPGKGLEWVAATYSSFGSITYADSVKGRFTISADTSKNTAYLQMNSLRAEDTAVYYCARYHHPFGYALDYWGQGTLVTVSSASTKGPSVFPLAPSSKSTSGGTAALGCLVKDYFPEPVTVSWNSGALTSGVHTFPAVLQSSGLYSLSSVVTVPSSSLGTQTYICNVNHKPSNTKVDKKVEPKSCDKTHT
heavy 2: MNLLLILTFVAAAVAEFEVQLVESGGGLVQPGGSLRLSCAASGFNISYSSIHWVRQAPGKGLEWVASISPYYGYTYYADSVKGRFTISADTSKNTAYLQMNSLRAEDTAVYYCARSSYFPWFSAMDYWGQGTLVTVSSGGGGSDIQMTQSPSSLSASVGDRVTITCRASQSVSSAVAWYQQKPGKAPKLLIYSASSLYSGVPSRFSGSRSGTDFTLTISSLQPEDFATYYCQQYYWPITFGQGTKVEIKLEDKTHTKVEPKTSDKTHTCPPCPAPELLGGPSVFLFPPKPKDTLMISRTPEVTCVVVDVSHEDPEVKFNWYVDGVEVHNAKTKPREEQYNSTYRVVSVLTVLHQDWLNGKEYKCKVSNKALPAPIEKTISKAKGQPREPMVFDLPPSREEMTKNQVSLWCMVKGFYPSDIAVEWESNGQPENNYKTTPPVLDSDGSFFLYSKLTVDKSRWQQGNVFSCSVMHEALHNHYTQKSLSLSPGKSGSETPGTSESATPESGGGEVQLVESGGGLVQPGGSLRLSCAASGFNIHSSSIHWVRQAPGKGLEWVAATYSSFGSITYADSVKGRFTISADTSKNTAYLQMNSLRAEDTAVYYCARYHHPFGYALDYWGQGTLVTVSSASTKGPSVFPLAPSSKSTSGGTAALGCLVKDYFPEPVTVSWNSGALTSGVHTFPAVLQSSGLYSLSSVVTVPSSSLGTQTYICNVNHKPSNTKVDKKVEPKSCDKTHT
light: DIQMTQSPSSLSASVGDRVTITCRASQSVSSAVAWYQQKPGKAPKLLIYSASSLYSGVPSRFSGSRSGTDFTLTISSLQPEDFATYYCQQGVYLFTFGQGTKVEIKRTVAAPSVFIFPPSDEQLKSGTASVVCLLNNFYPREAKVQWKVDNALQSGNSQESVTEQDSKDSTYSLSSTLTLSKADYEKHKVYACEVTHQGLSSPVTKSFNRGEC
The molecule B1 registered a TOPFLASH % Wnt Maxima of 49 % Wnt Maxima, a TOPFLASH EC50 of 0.7 nM and a TOPFLASH Maximal Signal (% Wnt3a maxima) (% Wnt3a maxima) of 50.
